Experimental data: US20120277286A1, “COMPOSITIONS AND METHODS FOR THE TREATMENT OR PREVENTION OF MITOCHONDRIAL DISEASES” (The Government of the USA, as represented by the Secretary, …, priority 2009, published 2012)

Assays:
Type in all cases: cell-based
HeLa cells [1] = experiment: Regulated FRB/FKBP heterodimerization of PINK1 to outer mitochondrial membrane
Description: In the presence of the rapamycin derivative AP21967, the FRB domain and the FKBP domain heterodimerize, but only if they are in the same compartment. Thus, FRB-PINK1Δ1-110-YFP should be recruited from the cytosol to mitochondria if the FKBP domain of TOM20-FKBP faces the cytosol but not if it faces the inner membrane space or the matrix. […] To assess whether PINK1 expression on the outer mitochondrial membrane is sufficient to recruit Parkin, mCherry-Parkin, FRB-PINK1Δ1-110-YFP, and TOM20-FKBP were co-transfected. In the absence of AP21967, mCherry-Parkin was in the cytosol, but following incubation AP21967 mCherry-Parkin was recruited to mitochondria in 96.7±4.1% of cells, in the absence of CCCP (FIG. 14F and FIG. 15D).
HeLa YFP-Parkin, E18 Rat cortical neurons, PINK1^+/+ SV40 transformed MEFs cells, PINK1^−/− SV40 transformed MEF, M17 neuroblastoma control shRNA, M17 neuroblastoma PINK1, Mfn1/2^−/− MEF, and Parl^−/− MEF cell lines have been described previously (Narendra (2008) J Cell Biol 183: 795-803). PINK1^+/+ and PINK1^−/− primary MEFs were isolated from embryos using a standard protocol (Gautier (2008) Proc Natl Acad Sci USA 105: 11364-11369). […]

HeLa cells [2] = experiment: Parkin colocalization with mitochondria scored by confocal microscopy; conditions: HeLa cells, 2 mM paraquat, 24 hours
How it was run: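 Transfected HeLa cells fixed 12–24 h post-transfection in 4% paraformaldehyde. Cells immunostained for mitochondrial markers and imaged by confocal microscopy. Parkin recruitment to mitochondria assessed by line-scan colocalization.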

HeLa cells [3] = experiment: PINK1-YFP imaging and colocalization in HeLa cells; conditions: 2 mM paraquat, 16 hours
Experimental: (§1) Confocal microscopy of fixed samples, scoring of Parkin recruitment and Parkininduced mitophagy, and live cell imaging were performed as described previously (Narendra (2008) J Cell Biol 183: 795-803). Experiments in Mfn1/2 null cells were performed as described previously with minor modifications.
as §1, with “Parkin-induced” for “Parkininduced”, “imageing” for “imaging”, “modifications described in the supplemental methods (Narendra (2008) J Cell Biol 183: 795-803).” for “modifications.”

PINK1 = PINK1 cleavage pattern by immunoblotting (Examples 4 and 5); conditions: HeLa; for levels of FL and/or ΔMTS-PINK1: absence of CCCP or MG132; for 52 kDa fragment of PINK1: absence of MG132 treatment
Experimental: PARL siRNA (5′-[…]-C′) were synthesized by Qiagen. In order to achieve efficient knockdown of PARL, cells were transfected twice over a period of 96 hrs. PINK1-V5/His was a gift from M. Cookson (National Institute of Health, Bethesda, Md.). For site-directed mutagenesis, primers were designed using Primer X, web-based mutagenic primer design program (http://www.bioinformatics.org/primerx/), and produced by Operon. 15 rounds of PCR reactions were performed using Phusion DNA polymerase (Finnzymes) and WT PINK1-YFP constructs as a template. Introduction of point mutations were confirmed by sequencing.
(§2) Cells were cultured in borosilicated chamber slides for imaging, 6-well plates for whole cell lysates, and 100 or 150 mm culture dish for subcellular fractionation. One day after seeding, cells were transfected with indicated constructs using Fugene HD (Roche) or Lipofectamine 2000 (Invitrogen) according to the manufacturer's guidelines.
For whole cell lysates, cells were washed twice with cold-PBS and then directly lysed with 1× sample buffer. For mitochondrial fraction, cells were fractionated as described previously (Narendra et al., 2008) and below, and then mitochondrial pellets were lysed with 1× sample buffer. 20 μg of proteins were separated on 4-12% Tris-glycine or Bis-Tris SDS-PAGE. The following antibodies were used: anti-PINK1 (Novus Biologicals), anti-PARL N-terminal (a gift from L. Pellegrini), anti-Tom20 (Santa Cruz Biotechnology, Inc.), anti-AIF (Sigma-Aldrich) and antiHtra2/Omi (R&D systems) polyclonal antibodies; anti-VDAC (Calbiochem), anti-Tubulin, anti-βactin (Sigma-Aldrich), anti-Hsp70 (Cell Signaling Technologies), anti-Tom20 (BD), anti-Tim23 and anti-cytochrome C (BD) monoclonal antibodies.

HeLa cells [4] = experiment: Mitochondrial translocation of Parkin by imaging (Examples 4 and 5); conditions: HeLa cells or PINK1 KO cells, without CCCP
Experimental: as §2
For immunocytochemistry, cultured cells in borosilicated chamber slides were fixed with 4% paraformaldehyde in PBS (USB) and permeabilized with the indicated detergent. After 30 min blocking with 10% BSA in PBS, cells were stained with the following primary antibodies: antiTom20 polyclonal antibody (Santa Cruz Biotechnology, Inc.) and anti-cytochrome C monoclonal antibody (BD), or anti-Tom20 monoclonal antibody (BD) and anti-GFP polyclonal antibody (Invitrogen) and then with the following secondary antibodies: goat anti-mouse/rabbit IgG antibody conjugated with Alexa Fluor 594/647, respectively. In case of live cell imaging, cells were pulsed with 600 nM TMRE for 5 min to evaluate mitochondrial membrane potential or 10 nM Mitotracker Red for 30 min to see the mitochondrial morphology. Cells were imaged using an inverted microscope (LSM510 Meta; Carl Zeiss) with 63×/1.4 oil DIC Plan Apo objective. Image contrast and brightness were adjusted in LSM image browser (Carl Zeiss).

Molecule | levels of FL and/or ΔMTS-PINK1 (PINK1) | mitochondrial translocation of Parkin induced by PINK1 mutant (HeLa cells [4]) | 52 kDa fragment of PINK1 (PINK1) | also measured
CO[C@H]1[C@@H](O)[C@H](C)C[C@H](C)/C=C/C=C/C=C(\C)[C@@H](c2c[nH]c3c(C)cccc23)C[C@@H]2CC[C@@H](C)[C@@](O)(O2)C(=O)C(=O)N2CCCC[C@H]2C(=O)O[C@H]([C@H](C)C[C@@H]2CC[C@@H](O)[C@H](OC)C2)C[C@H](O)[C@H](C)/C=C(\C)[C@H]1O [AP21967] | – | – | – | cells with mCherry-Parkin recruited to mitochondria (HeLa cells [1]; HeLa with FRB-PINK1Δ1-110-YFP, TOM20-FKBP, mCherry-Parkin, 250 nM AP21967, 8 hours, absence of CCCP): 96.7±4.1%; recruitment of FRB-PINK1Δ1-110-YFP to the outer mitochondrial membrane (HeLa cells [1]; HeLa, 250 nM AP21967): quickly recruited
C[n+]1ccc(-c2cc[n+](C)cc2)cc1 [paraquat, reference compound] | – | – | – | YFP-Parkin recruitment to mitochondria (HeLa cells [2]): recruited to depolarized mitochondria; YFP-Parkin recruitment to mitochondria (HeLa cells [2]; listed as Paraquat): triggers Parkin recruitment to mitochondria; average pearson coefficient PINK1-YFP / MTR (HeLa cells [3]): 0.26±0.13; average pearson coefficient PINK1-YFP / cytochrome c (HeLa cells [3]): 0.58±0.11
G97F: PINK1-YFP transmembrane domain point mutant (protein, UniProt Q9BXM7 78-581, looked up, variant G97F, YFP fusion, PINK1-YFP transmembrane domain point mutant) Serine/threonine-protein …: AARLQRQFVVRAWGCAGPCFRAVFLAFGLGLGLIEEKQAESRRAVSACQEIQAIFTQKSKPGPDPLDTRRLQGFRLEEYLIGQSIGKGCSAAVYEATMPTLPQNLEVTKSTGLLPGRGPGTSAPGEGQERAPGAPAFPLAIKMMWNISAGSSSEAILNTMSQELVPASRVALAGEYGAVTYRKSKRGPKQLAPHPNIIRVLRAFTSSVPLLPGALVDYPDVLPSRLHPEGLGHGRTLFLVMKNYPCTLRQYLCVNTPSPRLAAMMLLQLLEGVDHLVQQGIAHRDLKSDNILVELDPDGCPWLVIADFGCCLADESIGLQLPFSSWYVDRGGNGCLMAPEVSTARPGPRAVIDYSKADAWAVGAIAYEIFGLVNPFYGQGKAHLESRSYQEAQLPALPESVPPDVRQLVRALLQREASKRPSARVAANVLHLSLWGEHILALKNLKLDKMVGWLLQQSAATLLANRLTEKCCVETKMKMLFLANLECETLCQAALLLCSWRAAL | dramatically increased levels | – | – | –
R98F: PINK1-YFP transmembrane domain point mutant (protein, UniProt Q9BXM7 78-581, looked up, variant R98F, YFP fusion, PINK1-YFP transmembrane domain point mutant) Serine/threonine-protein …: AARLQRQFVVRAWGCAGPCGFAVFLAFGLGLGLIEEKQAESRRAVSACQEIQAIFTQKSKPGPDPLDTRRLQGFRLEEYLIGQSIGKGCSAAVYEATMPTLPQNLEVTKSTGLLPGRGPGTSAPGEGQERAPGAPAFPLAIKMMWNISAGSSSEAILNTMSQELVPASRVALAGEYGAVTYRKSKRGPKQLAPHPNIIRVLRAFTSSVPLLPGALVDYPDVLPSRLHPEGLGHGRTLFLVMKNYPCTLRQYLCVNTPSPRLAAMMLLQLLEGVDHLVQQGIAHRDLKSDNILVELDPDGCPWLVIADFGCCLADESIGLQLPFSSWYVDRGGNGCLMAPEVSTARPGPRAVIDYSKADAWAVGAIAYEIFGLVNPFYGQGKAHLESRSYQEAQLPALPESVPPDVRQLVRALLQREASKRPSARVAANVLHLSLWGEHILALKNLKLDKMVGWLLQQSAATLLANRLTEKCCVETKMKMLFLANLECETLCQAALLLCSWRAAL | dramatically increased levels | did not induce | – | –
A103W: PINK1-YFP transmembrane domain point mutant (protein, UniProt Q9BXM7 78-581, looked up, variant A103W, C-terminal YFP fusion, PINK1-YFP transmembrane domain point mutant) Serine/threonine-protein …: AARLQRQFVVRAWGCAGPCGRAVFLWFGLGLGLIEEKQAESRRAVSACQEIQAIFTQKSKPGPDPLDTRRLQGFRLEEYLIGQSIGKGCSAAVYEATMPTLPQNLEVTKSTGLLPGRGPGTSAPGEGQERAPGAPAFPLAIKMMWNISAGSSSEAILNTMSQELVPASRVALAGEYGAVTYRKSKRGPKQLAPHPNIIRVLRAFTSSVPLLPGALVDYPDVLPSRLHPEGLGHGRTLFLVMKNYPCTLRQYLCVNTPSPRLAAMMLLQLLEGVDHLVQQGIAHRDLKSDNILVELDPDGCPWLVIADFGCCLADESIGLQLPFSSWYVDRGGNGCLMAPEVSTARPGPRAVIDYSKADAWAVGAIAYEIFGLVNPFYGQGKAHLESRSYQEAQLPALPESVPPDVRQLVRALLQREASKRPSARVAANVLHLSLWGEHILALKNLKLDKMVGWLLQQSAATLLANRLTEKCCVETKMKMLFLANLECETLCQAALLLCSWRAAL | – | did not recruit Parkin | stabilize the 52 kDa fragment | –
G105W: PINK1-YFP transmembrane domain point mutant (protein, UniProt Q9BXM7 78-581, looked up, variant G105W, C-terminal YFP fusion, PINK1-YFP transmembrane domain point mutant) Serine/threonine-protein …: AARLQRQFVVRAWGCAGPCGRAVFLAFWLGLGLIEEKQAESRRAVSACQEIQAIFTQKSKPGPDPLDTRRLQGFRLEEYLIGQSIGKGCSAAVYEATMPTLPQNLEVTKSTGLLPGRGPGTSAPGEGQERAPGAPAFPLAIKMMWNISAGSSSEAILNTMSQELVPASRVALAGEYGAVTYRKSKRGPKQLAPHPNIIRVLRAFTSSVPLLPGALVDYPDVLPSRLHPEGLGHGRTLFLVMKNYPCTLRQYLCVNTPSPRLAAMMLLQLLEGVDHLVQQGIAHRDLKSDNILVELDPDGCPWLVIADFGCCLADESIGLQLPFSSWYVDRGGNGCLMAPEVSTARPGPRAVIDYSKADAWAVGAIAYEIFGLVNPFYGQGKAHLESRSYQEAQLPALPESVPPDVRQLVRALLQREASKRPSARVAANVLHLSLWGEHILALKNLKLDKMVGWLLQQSAATLLANRLTEKCCVETKMKMLFLANLECETLCQAALLLCSWRAAL | – | did not recruit Parkin | stabilize the 52 kDa fragment | –
